Here are results for 23 molecules from patent US20260176378A1 (DYAX, published 2026).

To fix the notation:
B1: M10-A03 (Fab, V domains shown)
VH: EVQLLESGGGLVQPGGSLRLSCAASGFTFSPYPMQWVRQAPGKGLEWVSSISSSGGMTEYADSVKGRFTISRDNSKNTLYLQMNSLRAEDTAVYYCARDDYGGKGGAFDIWGQGTMVTVSS
VL: DIQMTQSPSSLSASVGDRVTITCRASQRISFYLNWFQQKPGKAPNLLIYGASSLQSGVPSRFSGSGSGTDFTLTISSLQPKDFGTYYCQQTFSTPNTFGQGTKLEIK
B2: M10-G09 (Fab, V domains shown)
VH: EVQLLESGGGLVQPGGSLRLSCAASGFTFSQYGMQWVRQAPGKGLEWVSSIRSSGGATRYADSVKGRFTISRDNSKNTLYLQMNSLRAEDTAVYYCARDGYYDSSGYPDYWGQGTLVTVSS
VL: DIQMTQSPSSLSASVGDSVTITCRASQSISGYINWYQQKAGKAPKLLIYAASSLQSGVPSRFSGSGSGTHFTLTISSLQPEDFATYYCQQYVSYPFTFGPGTKVDIK
B3: M9-H02 (Fab, V domains shown)
VH: EVQLLESGGGLVQPGGSLRLSCAASGFTFSAYMMIWVRQAPGKGLEWVSVIYPSGGVTMYADSVKGRFTISRDNSKNTLYLQMNSLRAEDTAVYYCARGTVGASDAFDIWGQGTMVTVSS
VL: DIQMTQSPSSLSASVGDRVIITCRASRSIATYLNWYQQKPGKAPNLLIFGASTLQSGVPSRFSGSGSGTDFTLTISDLQPEDFATYYCQQSFSDPYTFGQGTNLEMK
B4: M9-C08 (Fab, V domains shown)
VH: EVQLLESGGGLVQPGGSLRLSCAASGFTFSHYGMVWVRQAPGKGLEWVSYIVPSGGLTYYADSVKGRFTISRDNSKNTLYLQMNSLRAEDTAVYYCARVDYTGDGLGYWGQGTLVTVSS
VL: DIQMTQSPSSLSASVGDRVTITCRASQSISIYVNWYQQKPGKAPNLLIFAASSLQRGVPSRFSGSGSGADFTLTISSLQPEDFATYYCQQSFSTPLTFGGGTKVEIK
B5: M9-H04 (Fab, V domains shown)
VH: EVQLLESGGGLVQPGGSLRLSCAASGFTFSAYTMWWVRQAPGKGLEWVSSIWPSGGSTFYADSVKGRFTISRDNSKNTLYLQMNSLRAEDTAVYYCARTYDSSAGEVDYWGQGTLVTVSS
VL: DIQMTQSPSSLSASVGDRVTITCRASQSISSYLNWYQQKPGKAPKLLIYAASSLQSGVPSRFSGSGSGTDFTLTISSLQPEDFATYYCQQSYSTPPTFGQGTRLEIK
B6: M10-F09 (Fab, V domains shown)
VH: EVQLLESGGGLVQPGGSLRLSCAASGFTFSNYDMMWVRQAPGKGLEWVSYISPSGGFTRYADSVKGRFTISRDNSKNTLYLQMNSLRAEDTATYYCAKDIYYYNWGPSHYFDSWGQGTLVTVSS
VL: DIQMTQSPSSLSASVGDRVTITCRASQTIDDDLIWYQQKPGRAPKLLIYAASSLQSGVPSRFSGSGSGTDFTLTITSLQPEDFATYYCQQSYNIPRTFGQGTKLESK
B7: M9-F09 (Fab, V domains shown)
VH: EVQLLESGGGLVQPGGSLRLSCAASGFTFSSYPMGWVRQAPGKGLEWVSRISSSGGMTIYADSVKGRFTISRDNSKNTLYLQMNSLRAEDTAVYYCARDDWNVGMDVWGQGTTVTVSS
VL: DIQMTQSPSSLSASVGDRVTITCRASQSISSYLNWYQQKPGKAPKLLIYAASSLQSGVPSKFSGSGSGTDYTLTISSLQPEDFATYYCQQTYTTPWTFGQGTKVEIK
B8: M10-B09 (Fab, V domains shown)
VH: EVQLLESGGGLVQPGGSLRLSCAASGFTFSWYEMSWVRQAPGKGLEWVSRIWPSGGVTMYADSVKGRFTISRDNSKNTLYLQMNSLRAEDTAVYYCTRTSITTVGMDVWGQGTTVTVSS
VL: DIQMTQSPSSLSASVGDGVTITCRASQSISTYLNWYQQRPGKAPKLLIYGASSLQSGVPSRFSGSGSGTDFTLTISSLQREDFATYYCQQSFSTPWTFGQGTRVEIK
B9: M9-D08 (Fab, V domains shown)
VH: EVQLLESGGGLVQPGGSLRLSCAASGFTFSWYKMMWVRQAPGKGLEWVSSIYPSGGWTNYADSVKGRFTISRDNSKNTLYLQMNSLRAEDTAVYYCTRGSPWGDDAFDIWGQGTMVTVSS
VL: DIQMTQSPSSLSASVGDRVTLTCRASRTISFYLNWYQQKAGKAPELLIYGGSSLHSGVPSRFSGSGSGTDFSLTISNLQPEDIAVYYCQQSFSSPWTFGQGTKVEIK
B10: M8-H04 (Fab, V domains shown)
VH: EVQLLESGGGLVQPGGSLRLSCAASGFTFSGYWMGWVRQAPGKGLEWVSSISSSGGWTQYADSVKGRFTISRDNSKNTLYLQMNSLRAEDTATYYCARDDEIAAGGAFDIWGQGAMVTVSS
VL: DIQMTQSPSSLSASIGDRVTITCRASQYISTYLNWYEQKPGKAPKLLIYGTSSLQSGVPSRFSGSGSGTEFSLTISSLQPEDFATYYCQQSFTTPFTFGQGTKLEIK
B11: M10-C11 (Fab, V domains shown)
VH: EVQLLESGGGLVQPGGSLRLSCAASGFTFSMYPMMWVRQAPGKGLEWVSYISPSGGMTDYADSVKGRFTISRDNSKNTLYLQMNSLRAEDMAVYYCARVAGSSDAFDIWGQGTMVTVSS
VL: DIQMTQSPSSLSASVGDRVTITCRASQSISIYLNWYQQKPEKAPKLLIFAASTLQSGVPSRFSGSGSGTDFTLTISNLQPEDFATYYCQQSHSIPPTFGLGTKVEVK
B12: M9-E04 (Fab, V domains shown)
VH: EVQLLESGGGLVQPGGSLRLSCAASGFTFSEYDMMWVRQAPGKGLEWVSSIGSSGGMTYYADSVKGRFTISRDNSKNTLYLQMNSLRAEDTAVYYCARDQVAAAAIDYWGQGTLVTVSS
VL: DIQMIQSPSSLSASVGDRVTITCRASQSISGYLNWYQQRSGKAPKLLIFAASNLQTGVPSRFSGSGSGTDFTLTINNLQPEDFATYYCQQSHTPPKTFGPGTKVDIK
B13: M10-E06 (Fab, V domains shown)
VH: EVQLLESGGGLVQPGGSLRLSCAASGFTFSLYRMFWVRQAPGKGLEWVSSIWSSGGPTMYADSVKGRFTISRDNSKNTLYLQMNSLRAEDTAVYYCAREYPSTYYFDYWGQGTLVTVSS
VL: DIQMTQSPSSLSASVGDRVTITCRASQSISTYLNWYQQKPGKAPKLLIYGASSLQSGVPSRFSGSGSGTDFTLTISSLQPEDFTIYYCQQSYSDPYTFGQGTKLDIK
B14: M9-C10 (Fab, V domains shown)
VH: EVQLLESGGGLVQPGGSLRLSCAASGFTFSLYPMQWVRQAPGKGLEWVSSIGSSGGMTFYADSVKGRFTISRDNSKNTLYLQMNSLRAEDTAVYYCTREVGAAGFAFDIWGQGTMVTVSS
VL: DIQMTQSPSSLSASVGDRVTITCRASQGISSYLNWYQQKPGNAPNLLIYGASSLQSGVPSRFSGSGSGTDFTLTISSLQPEDFATYYCQESYSTLFTFGPGTTVEIK
B15: M9-F10 (Fab, V domains shown)
VH: EVQLLESGGGLVQPGGSLRLSCAASGFTFSDYDMEWVRQAPGKGLEWVSSISPSGGSTIYADSVKGRFTISRDNSKNTLYLQMNSLRAEDTAVYYCARQGLLTAFDIWGQGTMVTVSS
VL: DIQMTQSPSSLSASVGDRVTITCRASQSINTYLNWYQQKPGKAPKVLIHAASTLESGVPSRFSGSGSGTDFTLTISSLQPEDFATYYCQQSYSTPYTFGQGTKLEVR
B16: M9-A03 (Fab, V domains shown)
VH: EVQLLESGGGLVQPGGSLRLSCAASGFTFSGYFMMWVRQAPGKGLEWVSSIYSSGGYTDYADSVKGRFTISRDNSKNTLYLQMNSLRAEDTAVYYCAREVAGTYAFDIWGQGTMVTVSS
VL: DIQMTQSPSSLSASLGDRVTITCRASQNIDIYLNWYQQTPGKAPKLLIYGAYNLQSGVPSRFSGSGSGTDFTLTISSLQPEDFGTYYCQQSYGTPVFGQGTKLEIK
B17: M9-F08 (Fab, V domains shown)
VH: EVQLLESGGGLVQPGGSLRLSCAASGFTFSPYAMTWVRQAPGKGLEWVSVIYPSGGFTDYADSVKGRFTISRDNSKNTLYLQMNSLRAEDTAMYYCARASGSYLDAFDIWGQGTMVTVSS
VL: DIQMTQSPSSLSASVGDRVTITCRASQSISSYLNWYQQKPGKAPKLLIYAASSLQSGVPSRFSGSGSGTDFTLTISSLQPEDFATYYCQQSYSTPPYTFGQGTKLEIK
B18: M9-G08 (Fab, V domains shown)
VH: EVQLLESGGGLVQPGGSLRLSCAASGFTFSYYTMLWVRQAPGKGLEWVSSIYPSGGFTMYADSVKGRFTISRDNSKNTLYLQMNSLRAEDTAVYYCARVDTAMAMIDYWGQGTLVTVSS
VL: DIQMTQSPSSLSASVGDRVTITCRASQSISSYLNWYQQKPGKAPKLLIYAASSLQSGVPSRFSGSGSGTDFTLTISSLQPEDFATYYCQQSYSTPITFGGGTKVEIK
B19: M10-D11 (Fab, V domains shown)
VH: EVQLLESGGGLVQPGGSLRLSCAASGFTFSAYPMNWVRQAPGKGLEWVSRISSSGGNTSYADSVKGRFTISRDNSKNTLYLQMNSLRAEDTAVYYCALGYLGYWGQGTLVTVSS
VL: not shown
B20: M11-A10 (Fab, V domains shown)
VH: EVQLLESGGGLVQPGGSLRLSCAASGFTFSNYWMMWVRQAPGKGLEWVSGIGSSGGFTSYADSVKGRFTISRDNSKNTLYLQMNSLRAEDTAVYYCAKGSYSDYGVFESWGQGTLVTVSS
VL: DIQMTQSPSSLSASVGDRVAITCRASQSIDTYLNWYQQKPGKAPKLLIYDASNLEIGVPSRFSGSGSGTDFTFIINSLQPEDVATYYCQHYLYAPYSFGQGTKLEIK
B21: M10-A12 (Fab, V domains shown)
VH: EVQLLESGGGLVQPGGSLRLSCAASGFTFSLYLMHWVRQAPGKGLEWVSSIYSSGGFTTYADSVKGRFTISRDNSKNTLYLQMNSLRAEDTAVYYCARDTDYGMDVWGQGTTVTVSS
VL: DIQMTQSPLSLSAFVGDRVTITCRASRDISVYLNWYQLKSGKAPKLLIYGASSLQSGVPSRFSGSGSGTDFTLTITSLQPEDFATYYCQQSYSIPFTFGGGTKVETK
B22: M9-A08 (Fab, V domains shown)
VH: EVQLLESGGGLVQPGGSLRLSCAASGFTFSAYEMWWVRQAPGKGLEWVSYIGSSGGSTSYADSVKGRFTISRDNSKNTLYLQMNSLRAEDTAVYYCTGGNSSSFDAFDIWGQGTMVTVSS
VL: DIQMTQSPSSLSASVGDRVTVTCRASQRISTYLNWYQQKPGKAPKLLISGASSLQSGVPSRFSGSGSGTDFTLTISSLQPDDFATYYCQQSYNTPRTFGQGTKVEIR
B23: M9-H03 (Fab, V domains shown)
VH: EVQLLESGGGLVQPGGSLRLSCAASGFTFSWYSMGWVRQAPGKGLEWVSYIVPSGGYTMYADSVKGRFTISRDNSKNTLYLQMNSLRAEDTAVYYCARDPGVSYYYYGMDVWGQGTTVTVSS
VL: QYELTQAPSVSVAPGQTASITCSGDKLGNRYTSWYQQKPGQSPVLVIFQDNKRPSGIPERFSGSNSGNTATLTISGTQAMDEADYYCQALDSNTYVFGTGTKVTVL

T1 sequence (P03952 20-390 limits assumed, chain 1 of 2): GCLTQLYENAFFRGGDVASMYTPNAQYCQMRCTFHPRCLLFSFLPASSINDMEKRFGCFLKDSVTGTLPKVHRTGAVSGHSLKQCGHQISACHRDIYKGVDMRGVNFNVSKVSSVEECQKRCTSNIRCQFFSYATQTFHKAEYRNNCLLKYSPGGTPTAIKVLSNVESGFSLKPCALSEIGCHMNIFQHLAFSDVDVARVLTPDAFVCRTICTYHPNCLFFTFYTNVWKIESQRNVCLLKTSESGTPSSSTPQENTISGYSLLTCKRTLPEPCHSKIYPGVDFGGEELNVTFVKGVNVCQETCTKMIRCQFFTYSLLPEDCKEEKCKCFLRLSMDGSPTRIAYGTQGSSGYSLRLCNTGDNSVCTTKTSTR
T1 sequence (P03952 391-638 limits assumed, chain 2 of 2): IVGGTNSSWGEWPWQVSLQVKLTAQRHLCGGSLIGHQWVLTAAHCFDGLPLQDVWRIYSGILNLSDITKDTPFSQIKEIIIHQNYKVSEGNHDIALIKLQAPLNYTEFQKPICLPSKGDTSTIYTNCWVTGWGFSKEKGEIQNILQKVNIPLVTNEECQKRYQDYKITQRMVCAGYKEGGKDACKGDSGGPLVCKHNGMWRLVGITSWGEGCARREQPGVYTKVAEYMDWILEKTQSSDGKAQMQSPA

The experiment addresses T1, human plasma kallikrein (human, UniProt P03952 20-390; P03952 391-638).
T1 construct: two disulfide-linked chains; NP_000883.2; also called pKal; hpKal
The experiment in a line: ELISA, biotinylated pKal signal over streptavidin background. In general terms: In an ELISA, binding on a coated surface is turned into a signal by an enzyme label.
As for B1, the “ELISA (T/B)” value worked out at 33.7.
With B2, the “ELISA (T/B)” value amounted to 7.1.
Take B3: the “ELISA (T/B)” value came out at 3.5.
On to B4, for which the “ELISA (T/B)” value was found to be 10.9.
For B5, the “ELISA (T/B)” value came out at 16.1.
The value for B6 was 4.8.
Turning to B7, the “ELISA (T/B)” value amounted to 7.
For B8, the “ELISA (T/B)” value was 14.1.
Regarding B9, the “ELISA (T/B)” value turned out to be 35.9.
In the case of B10, the “ELISA (T/B)” value came out at 3.3.
As to B11, the “ELISA (T/B)” value was found to be 5.3.
With B12, the “ELISA (T/B)” value came to 18.8.
Consider B13, for which the “ELISA (T/B)” value turned out to be 32.8.
Turning to B14, the “ELISA (T/B)” value was 7.8.
Consider B15, for which the “ELISA (T/B)” value turned out to be 8.4.
The value for B16 was 14.4.
The value for B17 was 10.9.
For the molecule B18, the “ELISA (T/B)” value came out at 4.8.
Turning to B19, the “ELISA (T/B)” value is 6.4.
The value for B20 was 25; that for B21 was 20.8.
With B22, the “ELISA (T/B)” value worked out at 5.5.
For B23, the “ELISA (T/B)” value was 4.4.
